Measured values: the supplement of paper PMC11246515
± gives the standard deviation of the averaged measurements.

Assay: total protein half-life in vivo (active degradation + dilution); higher = more stable protein
[1] = E. coli NCM3722 delta-clpP delta-lon delta-hslV, growth: N-lim chemostat, doubling time 6 h
[2] = E. coli NCM3722 delta-clpP, growth: N-lim chemostat, doubling time 6 h
[3] = E. coli NCM3722 delta-smpB, growth: N-lim chemostat, doubling time 6 h
[4] = wild type E. coli NCM3722, growth: C-lim chemostat, doubling time 3 h
[5] = wild type E. coli NCM3722, growth: C-lim chemostat, doubling time 6 h
[6] = wild type E. coli NCM3722, growth: C-lim chemostat, doubling time 12 h
[7] = wild type E. coli NCM3722, growth: N-lim chemostat, doubling time 6 h
[8] = wild type E. coli NCM3722, growth: N-lim chemostat, doubling time 12 h
[9] = wild type E. coli NCM3722, growth: P-lim chemostat, doubling time 6 h
[10] = wild type E. coli NCM3722, growth: P-lim chemostat, doubling time 12 h
[11] = E. coli NCM3722 delta-lon, growth: N-lim chemostat, doubling time 6 h
[12] = E. coli NCM3722 delta-hslV, growth: N-lim chemostat, doubling time 6 h

Sequence	total protein half-life in vivo [1] [h]	total protein half-life in vivo [2] [h]	total protein half-life in vivo [3] [h]	total protein half-life in vivo [4] [h]	total protein half-life in vivo [5] [h]	total protein half-life in vivo [6] [h]	total protein half-life in vivo [7] [h]	total protein half-life in vivo [8] [h]	total protein half-life in vivo [9] [h]	total protein half-life in vivo [10] [h]	total protein half-life in vivo [11] [h]	total protein half-life in vivo [12] [h]
MKITKITTYRLPPRWMFLKIETDEGVVGWGEPVIEGRARTVEAAVHELGDYLIGQDPSRINDLWQVMYRAGFYRGGPILMSAIAGIDQALWDIKGKVLNAPVWQLMGGLVRDKIKAYSWVGGDRPADVIDGIKTLREIGFDTFKLNGCEELGLIDNSRAVDAAVNTVAQIREAFGNQIEFGLDFHGRVSAPMAKVLIKELEPYRPLFIEEPVLAEQAEYYPKLAAQTHIPLAAGERMFSRFDFKRVLEAGGISILQPDLSHAGGITECYKIAGMAEAYDVTLAPHCPLGPIALAACLHIDFVSYNAVLQEQSMGIHYNKGAELLDFVKNKEDFSMVGGFFKPLTKPGLGVEIDEAKVIEFSKNAPDWRNPLWRHEDNSVAEW [Q6BF17]	3.02 ± 0.17	1.75 ± 0.17	1.27 ± 0.18	2.67 ± 0.21	3.47 ± 0.4	5.79 ± 0.88	2.5	1.84	4.36 ± 0.18	7.25 ± 0.96	–	–
MKIVIAPDSYKESLSASEVAQAIEKGFREIFPDAQYVSVPVADGGEGTVEAMIAATQGAERHAWVTGPLGEKVNASWGISGDGKTAFIEMAAASGLELVPAEKRDPLVTTSRGTGELILQALESGATNIIIGIGGSATNDGGAGMVQALGAKLCDANGNEIGFGGGSLNTLNDIDISGLDPRLKDCVIRVACDVTNPLVGDNGASRIFGPQKGASEAMIVELDNNLSHYAEVIKKALHVDVKDVPGAGAAGGMGAALMAFLGAELKSGIEIVTTALNLEEHIHDCTLVITGEGRIDSQSIHGKVPIGVANVAKKYHKPVIGIAGSLTDDVGVVHQHGIDAVFSVLTSIGTLDEAFRGAYDNICRASRNIAATLAIGMRNAG	3.21 ± 0.32	2.26 ± 0.32	3.17 ± 1.2	3.01 ± 0.68	5.02 ± 1.3	9.27 ± 0.37	2.08 ± 0.076	10.9	5.89 ± 0.76	10.4 ± 2.5	2.05	–
MKKAGLLFLVMIVIAVVAAGIGYWKLTGEESDTLRKIVLEECLPNQQQNQNPSPCAEVKPNAGYVVLKDLNGPLQYLLMPTYRINGTESPLLTDPSTPNFFWLAWQARDFMSKKYGQPVPDRAVSLAINSRTGRTQNHFHIHISCIRPDVRKQLDNNLANISSRWLPLPGGLRGHEYLARRVTESELVQRSPFMMLAEEVPEAREHMGRYGLAMVRQSDNSFVLLATQRNLLTLNRASAEEIQDHQCEILR	6.38 ± 0.31	6.726 ± 0.048	6.59 ± 0.21	3.17 ± 0.07	7.09 ± 1	12.8 ± 0.32	6.45 ± 0.28	–	6.13 ± 0.2	13.6 ± 0.51	–	6.364 ± 0.022
MKKALQVAMFSLFTVIGFNAQANEHHHETMSEAQPQVISATGVVKGIDLESKKITIHHDPIAAVNWPEMTMRFTITPQTKMSEIKTGDKVAFNFVQQGNLSLLQDIKVSQ	–	2.72	4.22	2.8	4.69	6.31 ± 4.1	4.84 ± 0.35	7.67 ± 1.3	4.39 ± 1	7.41 ± 1.9	5.07 ± 0.12	5.07 ± 1
MKKATCLTDDQRWQSVLARDPNADGEFVFAVRTTGIFCRPSCRARHALRENVSFYANASEALAAGFRPCKRCQPEKANAQQHRLDKITHACRLLEQETPVTLEALADQVAMSPFHLHRLFKATTGMTPKAWQQAWRARRLRESLAKGESVTTSILNAGFPDSSSYYRKADETLGMTAKQFRHGGENLAVRYALADCELGRCLVAESERGICAILLGDDDATLISELQQMFPAADNAPADLMFQQHVREVIASLNQRDTPLTLPLDIRGTAFQQQVWQALRTIPCGETVSYQQLANAIGKPKAVRAVASACAANKLAIIIPCHRVVRGDGTLSGYRWGVSRKAQLLRREAENEER	–	3.82 ± 0.28	2.46	–	3.38	4.07	2.22	3.48	1.81	3.5 ± 0.11	3.25 ± 0.14	2.03
MKKFALLAGLFVFAPMTWAQDYNIKNGLPSETYITCAEANEMAKTDSAQVAEIVAVMGNASVASRDLKIEQSPELSAKVVEKLNQVCAKDPQMLLITAIDDTMRAIGKK [P0AB46]	3 ± 0.32	4	4.66 ± 0.55	2.77	4.69 ± 0.2	6.77 ± 0.093	4.93	10.1 ± 2.6	4.4 ± 1.1	8.95 ± 0.44	–	6.28
MKKFSGIIPPVSSTFHRDGTLDKKAMREVADFLINKGVDGLFYLGTGGEFSQMNTAQRMALAEEAVTIVDGRVPVLIGVGSPSTDEAVKLAQHAQAYGADGIVAINPYYWKVAPRNLDDYYQQIARSVTLPVILYNFPDLTGQDLTPETVTRLALQNENIVGIKDTIDSVGHLRTMINTVKSVRPSFSVFCGYDDHLLNTMLLGGDGAITASANFAPELSVGIYRAWREGDLATAATLNKKLLQLPAIYALETPFVSLIKYSMQCVGLPVETYCLPPILEASEEAKDKVHVLLTAQGILPV	4.88 ± 0.66	2.73 ± 0.14	3.17 ± 1.4	2.83 ± 0.1	4.76 ± 0.24	9.39 ± 0.15	3.68	–	–	11.11 ± 0.052	–	–
